Assay results published in article PMC6314816 (Journal of the American Chemical Society, 2018).

Columns and labels:
Experiment in all cases: spectrophotometric NADPH oxidation, initial rates
Type in all cases: biochemical, Thermocrispum municipale
Settings in all cases: NADPH co-substrate
CC(=O)CCc1ccccc1 = tested on: CC(=O)CCc1ccccc1
CC(=O)Cc1ccccc1 = tested on: CC(=O)Cc1ccccc1
[1] = substrate: CC(=O)Cc1ccccc1; remark: listed apart in the source
[2] = substrate: CC(=O)CCc1ccccc1; remark: listed apart in the source

“TmCHMO (Thermocrispum municipale; F434G/L145G/L437T/T435F)” was tested, and the Km (CC(=O)CCc1ccccc1) was 24 ± 4.1 µM and the kcat (CC(=O)CCc1ccccc1) was 0.16 ± 0.0028 s⁻¹.

“TmCHMO (Thermocrispum municipale; L437A/W492Y)” gave a Km (CC(=O)Cc1ccccc1) of 1500 ± 460 µM and a kcat (CC(=O)Cc1ccccc1) of 0.16 ± 0.014 s⁻¹.

B1: TmCHMO (Thermocrispum municipale) (protein)
chain: MSTTQTPDLDAIVIGAGFGGIYMLHKLRNDLGLSVRVFEKGGGVGGTWYWNKYPGAKSDTEGFVYRYSFDKELLREYDWTTRYLDQPDVLAYLEHVVERYDLARDIQLNTEVTDAIFDEETELWRVTTAGGETLTARFLVTALGLLSRSNIPDIPGRDSFAGRLVHTNAWPEDLDITGKRVGVIGTGSTGTQFIVAAAKMAEQLTVFQRTPQYCVPSGNGPMDPDEVARIKQNFDSIWDQVRSSTVAFGFEESTVEAMSVSESERQRVFQQAWDKGNGFRFMFGTFCDIATNPEANAAAAAFIRSKIAEIVKDPETARKLTPTDLYAKRPLCNEGYYETYNRDNVSLVSLKETPIEEIVPQGVRTSDGVVHELDVLVFATGFDAVDGNYRAMNLRGRDGRHINEHWTEGPTSYLGVTKAGFPNMFMILGPNGPFTNLPPSIEAQVEWISDLIDKATREGLTTVEPTADAEREWTETCAEIANMTLFPKADSWIFGANIPGKRHAVMFYLGGLGNYRRQLADVADGGYRGFQLRGERAQAVA
B1 showed a Km [1] of 860 ± 60 µM, a kcat [1] of 0.73 ± 0.014 s⁻¹ and a Km [2] of 12000 ± 7000 µM. For the same molecule, the kcat [2] was 0.31 ± 0.11 s⁻¹.
